Data set [1] deals with T1, GRPR (Homo sapiens, UniProt P30550).
T1 construct: host or cells: PC-3 human prostate adenocarcinoma cells
The experiment in a line: Fluorometric intracellular calcium release assay in PC-3 cells. As to conditions: for Ca2+ mobilization, relative fluorescence units (RFUs = max − min): 50 nM ligand, FLIPR Calcium 6, signal acquired 2 min, n = 3. The class given is cell-based. The method, then:
The antagonist/agonist characteristics of Ga-LW02075 and Ga-LW02050 were determined following previously published procedures. A 96-well clear-bottomed black plate was seeded with 5 × 10^4 PC-3 cells/well in 100 μL growth media 24 h prior to the assay. A calcium-sensitive dye (FLIPR Calcium 6 assay kit from Molecular Devices, San Jose, CA, USA) dissolved in the loading buffer (100 μL/well) was added into the plate followed by 1 h incubation at 37 °C. Then, the plate was transferred into a FlexStation 3 microplate reader (Molecular Devices, San Jose, CA, USA) to record the fluorescent signals. Ga-complexed SB3 derivatives (50 nM), [D-Phe^6,Leu-NHEt^13,des-Met^14]Bombesin(6-14) (50 nM, antagonist control), bombesin (50 nM, agonist control), adenosine triphosphate (ATP, 50 nM, positive control), or DPBS (blank control) were added. The fluorescent signals were acquired for 2 min (λEx = 485 nm; λEm = 525 nm; n = 3). The relative fluorescent units (RFUs = max − min) were calculated to determine the agonistic/antagonistic characteristics of the tested ligands.

The nature of another data set: physchem. The following applies: n-octanol/DPBS, pH 7.4. As to the method:
LogD7.4 values of [^68Ga]Ga-LW02075, [^68Ga]Ga-LW02050, and [^68Ga]Ga-SB3 were measured via the shake flask method. An aliquot of the ^68Ga-labeled tracer (~1.85 MBq) was added to a 15 mL falcon tube containing 3 mL of n-octanol and 3 mL of DPBS (pH 7.4) followed by 1 min of vortex (n = 3). After that, the mixture was centrifuged at 5000 rpm for 10 min, and samples of the n-octanol (1 mL) and buffer (1 mL) layers were collected and counted on a Perkin Elmer (Waltham, MA, USA) Wizard2 2480 automatic gamma counter. The LogD7.4 values of [^68Ga]Ga-LW02075, [^68Ga]Ga-LW02050, and [^68Ga]Ga-SB3 were calculated following the equation: LogD7.4 = log10[(counts in the n-octanol phase)/(counts in the buffer phase)].

Data set [2] is described as follows: Ex vivo biodistribution in PC-3 tumor-bearing mice. The following applies: male, mouse, iv, total radioactivity, 1 h post injection, mean ± SD, n = 4; for tissue uptake at 1 h: NOD.Cg-Rag1^tm1Mom Il2rg^tm1Wjl/SzJ (NRG); for tissue to tissue ratio at 1 h: NOD.Cg-Rag1tm1Mom Il2rgtm1Wjl/SzJ (NRG). The method, then:
Biodistribution studies were conducted for ^68Ga-labeled SB3, LW02075 and LW02050 in PC-3 tumor-bearing mice (n = 4).
(§1) Imaging and biodistribution studies were performed on male NOD.Cg-Rag1^tm1Mom Il2rg^tm1Wjl/SzJ (NRG) mice following previously published procedures. The experiments were conducted following the guidelines established by the Canadian Council on Animal Care and approved by Animal Ethics Committee of the University of British Columbia. The mice were sedated (2.5% isoflurane in oxygen) and injected with 5 × 10^6 PC-3 cells (100 µL; 1:1 PBS/Matrigel) subcutaneously behind the left shoulder. The tumor-bearing mice were used for PET/CT imaging and biodistribution studies when the tumor grew to 5–8 mm in diameter.
For biodistribution studies, the mice were injected with the radiotracer (~2–4 MBq), as described above. Blocking of [^68Ga]Ga-LW02075 and [^68Ga]Ga-LW02050 was conducted by co-injection with 100 μg nonradioactive Ga-LW02075 and Ga-LW02050, respectively, through a lateral caudal tail vein under anaesthesia. At 1 h post injection, the mice were sedated and euthanized by CO2 inhalation. Blood was collected via cardiac puncture, and organs/tissues of interest were collected, weighed, and counted on a Perkin Elmer (Waltham, MA, USA) Wizard2 2480 automatic gamma counter.

The next data set has as its system PC-3 tumor xenografts. Briefly: PET/CT imaging in mice bearing PC-3 tumor xenografts. It counts as in vivo. As to conditions: 1 h post injection, mice. As to the method:
as §1
PET/CT imaging experiments were performed on a Siemens (Knoxville, TN, USA) Inveon micro PET/CT scanner. Each tumor-bearing mouse was injected with ~3–6 MBq of ^68Ga-labeled tracer through a lateral caudal tail vein under anaesthesia. At around 50 min post injection, a 10 min CT scan was obtained first for localization and attenuation correction after segmentation for reconstructing the PET image, followed by a 10 min static PET scan.

Data set [3] has as its target GRPR. The following applies: ref 14 (Devin et al.); cited from earlier work. The source says:
Most of the reported GRPR-targeted agonist and antagonist sequences contain a C-terminal amide. […] To the best of our knowledge, no GRPR-targeted radioligands containing a C-terminal hydroxamate have ever been reported. Therefore, the goal of this study was to evaluate the potential of C-terminal hydroxamate- ...

For data set [4], the target named is T1, GRPR. The experiment in a line: In vitro competition binding assay, displacement of [125I-Tyr4]Bombesin from PC-3 cells. As to conditions: GRPR-expressing PC-3 cells, 0.01 nM [125I-Tyr4]Bombesin, 1 h at 37 °C, ligand 10 μM to 1 pM, n = 3. As to the method: The Ki values of Ga-LW02075, Ga-LW02050, and Ga-SB3 were measured using GRPR-expressing PC-3 prostate cancer cells via a cell-based competition binding assay. Ga-SB3, Ga-LW02075, and Ga-LW02050 inhibited the binding of [^125I-Tyr^4]Bombesin towards PC-3 cells in a dose-dependent manner (Figure 2).
Inhibition constants (Ki) of Ga-SB3, Ga-LW02075, and Ga-LW02050 toward GRPR were measured by in vitro competition binding assay following previously published procedures. The assays were conducted in triplicate with varied concentrations (10 μM to 1 pM) of Ga-SB3, Ga-LW02075, and Ga-LW02050. Briefly, 2 × 10^5 cells/well of PC-3 cells were seeded in 24-well poly-D-lysine plates 24 h prior to the assay. The growth medium was replaced with 400 μL of reaction medium (RPMI 1640 containing 2 mg/mL bovine serum albumin (BSA) and 20 mM HEPES), followed by 1 h incubation at 37 °C. The tested ligands in 50 μL reaction medium and 0.01 nM [^125I-Tyr^4]Bombesin in 50 μL reaction medium were added into the wells, and then incubated at 37 °C with moderate agitation for 1 h. […] Data analysis was performed using nonlinear regression with GraphPad (San Diego, CA, USA) Prism 10 software (Version 10.1.1).

The source of these data is PMC11243334, “Synthesis and Evaluation of the First ^68Ga-Labeled C-Terminal Hydroxamate-Derived Gastrin-Releasing Peptide Receptor-Targeted Tracers for Cancer Imaging with Positron Emission Tomography” (Molecules, 2024).

Like-named read-outs stand apart in the source and are kept apart here.

T1 sequence (P30550 whole entry): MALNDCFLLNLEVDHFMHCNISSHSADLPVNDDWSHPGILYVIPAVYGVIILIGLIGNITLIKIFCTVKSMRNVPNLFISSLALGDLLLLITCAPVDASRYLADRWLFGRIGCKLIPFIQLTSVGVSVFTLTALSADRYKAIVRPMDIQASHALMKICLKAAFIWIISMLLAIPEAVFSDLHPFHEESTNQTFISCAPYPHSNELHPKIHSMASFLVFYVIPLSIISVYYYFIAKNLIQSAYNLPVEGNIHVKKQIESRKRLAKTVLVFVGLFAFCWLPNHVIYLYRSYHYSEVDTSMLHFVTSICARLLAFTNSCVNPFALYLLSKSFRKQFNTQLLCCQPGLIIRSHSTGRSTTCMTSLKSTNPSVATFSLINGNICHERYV

For the molecule `Nc1ncnc2c1ncn2[C@@H]1O[C@H](COP(=O)(O)OP(=O)(O)OP(=O)(O)O)[C@@H](O)[C@H]1O` [ATP, adenosine triphosphate], the “Ca2+ mobilization, relative fluorescence units (RFUs = max − min)” value on GRPR [1] came out at 271 ± 24.4 RFUs.
Turning to `CCNC(=O)[C@H](CC(C)C)NC(=O)[C@H](Cc1c[nH]cn1)NC(=O)CNC(=O)[C@@H](NC(=O)[C@H](C)NC(=O)[C@H](Cc1c[nH]c2ccccc12)NC(=O)[C@H](CCC(N)=O)NC(=O)[C@@H](Cc1ccccc1)NC(=O)COCC(=O)Nc1ccc(CNC(=O)CN2CCN(CC(=O)O)CCN(CC(=O)O)CCN(CC(=O)O)CC2)cc1)C(C)C` [[^68Ga]Ga-SB3, [^68Ga]Ga-DOTA-pABzA-DIG-D-Phe-Gln-Trp-Ala-Val-Gly-His-Leu-NHEt, metal not drawn, reference compound], the logD in the data set “physchem” is -2.47 ± 0.09. Also, the tissue uptake at 1 h in data set [2] (PC-3 tumor, read-out: PC-3 tumor uptake) stood at 6.98 ± 1.36 %ID/g; in data set [2] (adrenal glands, read-out: Adrenal glands uptake), 2.07 ± 0.66 %ID/g; in data set [2] (blood, read-out: Blood uptake) it was 0.5 ± 0.09 %ID/g; in data set [2] (bone, read-out: Bone uptake) it was 0.12 ± 0.01 %ID/g; in data set [2] (brain, read-out: Brain uptake), 0.04 ± 0.01 %ID/g; in data set [2] (fat, read-out: Fat uptake), 0.05 ± 0.01 %ID/g. Moreover, the tissue uptake at 1 h is 0.16 ± 0.02 %ID/g in data set [2] (heart, read-out: Heart uptake); 2.26 ± 0.26 %ID/g in data set [2] (kidneys, read-out: Kidneys uptake); 2.2 ± 0.89 %ID/g in data set [2] (large intestine, read-out: Large intestine uptake); 2.1 ± 0.45 %ID/g in data set [2] (liver, read-out: Liver uptake); 1.18 ± 0.23 %ID/g in data set [2] (lungs, read-out: Lungs uptake); 0.18 ± 0.1 %ID/g in data set [2] (muscle, read-out: Muscle uptake). For the same molecule, the tissue uptake at 1 h in data set [2] (pancreas, read-out: Pancreas uptake) turned out to be 37.3 ± 6.9 %ID/g; in data set [2] (small intestine, read-out: Small intestine uptake) it was 6.03 ± 1.07 %ID/g; in data set [2] (spleen, read-out: Spleen uptake), 0.33 ± 0.17 %ID/g; in data set [2] (stomach, read-out: Stomach uptake), 1.42 ± 0.57 %ID/g; in data set [2] (testes, read-out: Testes uptake), 0.13 ± 0.01 %ID/g. For the same molecule, the tissue to tissue ratio at 1 h in data set [2] (tumor and bone, read-out: Tumor/bone uptake ratio) was 61 ± 15.5; in data set [2] (tumor and kidney, read-out: Tumor/kidney uptake ratio) it was 3.09 ± 0.51; in data set [2] (tumor and muscle, read-out: Tumor/muscle uptake ratio) it was 48.2 ± 24.9; in data set [2] (tumor and pancreas, read-out: Tumor/pancreas uptake ratio), 0.19 ± 0.03; in data set [2] (tumor and whole blood, read-out: Tumor/blood uptake ratio), 14.4 ± 3.88. Also, the “Excretion pathway in PET images” value in the data set on PC-3 tumor xenografts is listed as “excreted primarily through the renal pathway”. In the data set on PC-3 tumor xenografts, the “Pancreas in PET images” value is given as “high pancreas uptake”.
Turning to “D-Phe-Gln-Trp-Ala-Val-Gly-His-Leu-NHOH [C-terminal hydroxamate-derived GRPR-targeted antagonist reported by Devin et al]”, the Ki on GRPR [3] was 5.8 nM.
As for “Ga-DOTA-Pip-D-Phe-Gln-Trp-Ala-Val-Gly-His-Leu-NHOH [Ga-LW02050]”, the affinity on GRPR [4] corresponds to a Ki of 8.53 ± 1.52 nM. In addition, on GRPR [1], the “Ca2+ mobilization, relative fluorescence units (RFUs = max − min)” value is listed as 25.8 ± 7.95 RFUs. The Agonist/antagonist characteristics entry at GRPR [1] (50 nM, calcium release assay) is on record as “antagonist”.
“Ga-DOTA-pABzA-DIG-D-Phe-Gln-Trp-Ala-Val-Gly-His-Leu-NHEt [Ga-SB3, reference compound]”: the Ki on GRPR [4] came to 1.2 ± 0.31 nM.
Turning to “[D-Phe^6,Leu-NHEt^13,des-Met^14]Bombesin(6-14)”, the “Ca2+ mobilization, relative fluorescence units (RFUs = max − min)” value at GRPR [1] is recorded as 47.2 ± 6.61 RFUs.
The same measure, in the same setting: in the case of bombesin it was 371 ± 65.0 RFUs.
